Read-outs that look alike come from different tables or passages of the source.
T1: 小鼠CD38胞外区 (mCD38) with C-terminal His tag, mCD38-his (mouse (mus musculus), UniProt P56528 45-304)
T1 construct: Recombinant, made in HEK293 cells; coated on the ELISA plate; not shown: His tag added at the C-terminus
T1 sequence: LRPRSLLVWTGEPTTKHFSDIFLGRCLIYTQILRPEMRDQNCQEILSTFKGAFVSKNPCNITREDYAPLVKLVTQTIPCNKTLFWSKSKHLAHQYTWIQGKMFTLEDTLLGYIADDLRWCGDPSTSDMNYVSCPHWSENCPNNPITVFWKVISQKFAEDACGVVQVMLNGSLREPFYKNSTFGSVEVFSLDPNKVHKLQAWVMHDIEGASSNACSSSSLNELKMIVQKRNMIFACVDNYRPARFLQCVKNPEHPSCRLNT


Assays:
[1] = biological target: T1, 小鼠CD38胞外区 (mCD38) with C-terminal His …; assay: ELISA, mCD38-his coated at 1.5 μg/ml, HRP anti-human IgG detection
[2] = biological target: T2, 食蟹猴CD38胞外区 (mfCD38) with C-terminal His tag, mfCD38-his (cynomolgus monkey (Macaca fascicularis), UniProt Q5VAN0 44-301); assay: SPR (Biacore), antibody captured by anti-human Fc on CM5, mfCD38 as analyte
T2 construct: not shown: His tag added at the C-terminus
T2 sequence (Q5VAN0 44-301): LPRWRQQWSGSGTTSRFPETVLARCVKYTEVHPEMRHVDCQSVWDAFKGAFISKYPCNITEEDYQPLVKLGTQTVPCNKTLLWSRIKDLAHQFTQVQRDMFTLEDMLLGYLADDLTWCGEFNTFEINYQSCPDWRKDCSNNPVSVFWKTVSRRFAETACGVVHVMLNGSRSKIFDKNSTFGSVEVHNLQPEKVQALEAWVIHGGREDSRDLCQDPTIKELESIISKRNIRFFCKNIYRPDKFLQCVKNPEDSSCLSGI

[3] = biological target: T3, 人CD38胞外区 (hCD38) with C-terminal His tag, hCD38-his (human (homo sapiens), UniProt P28907 43-300); assay: SPR (Biacore), antibody captured by anti-human Fc on CM5, hCD38 as analyte, 25 °C
T3 construct: Recombinant, made in HEK293 cells; not shown: His tag added at the C-terminus

[4] = biological target: T3, 人CD38胞外区 (hCD38) with C-terminal His …; assay: as above; remark: listed apart in the source

| Binder | binding result [1] | Kd [2] | Kd [3] | Kd [4] |
| --- | --- | --- | --- | --- |
| S5B8 (mouse-human chimeric antibody, human IgG1) (antibody, V domains shown, Tested as a recombinant human IgG1-kappa/lambda mouse-human chimeric antibody; also called 鼠单抗S5B8) VH: QVQLQQSGSVLVRPGVSVKLSCKASGYAFTNSWMHWAKQRPGQGLEWIGEIHPQSGRTNYNEKFKGKATLTVDTSSSTAYVDFSSLTSEDSAVYYCARDLLQFGNQYYYAMDYWGQGTSVTVSS VL: DVVMTQTPLSLPVSLGDQASISCRSSQSLVHSNGNTYLHWYLQKPGQSPKLLIYKVSNRFSGVPDRFSGSGSGTDFTLKISRVEAEDLGVYFCSQSTHVPLTFGAGTKLEMK | no binding | 3.14 nM | 0.178 nM | – |
| S5B8VH-h1+S5B8VK-h1 (antibody, human IgG1, V domains shown, Humanized, expressed as a human IgG1 whole antibody; also called S5B8人源化分子) VH: QVQLVQSGAEVKKPGASVKVSCKASGYAFTNSWMHWVRQAPGQRLEWMGEIHPQSGRTNYNEKFKGRVTITRDTSASTAYMELSSLRSEDTAVYYCARDLLQFGNQYYYAMDYWGQGTLVTVSS VL: DVVMTQSPLSLPVTLGQPASISCRSSQSLVHSNGNTYLHWFQQRPGQSPRRLIYKVSNRFSGVPDRFSGSGSGTDFTLKISRVEAEDVGVYYCSQSTHVPLTFGQGTKLEIK | – | 13.6 nM | 0.371 nM | – |
| S5B8VH-h2+S5B8VK-h1 (antibody, human IgG1, V domains shown, Humanized, expressed as a human IgG1 whole antibody; also called S5B8人源化分子) VH: QVQLVQSGAEVKKPGASVKVSCKASGYAFTNSWMHWVRQAPGQGLEWMGEIHPQSGRTNYNEKFKGRVTMTRDTSTSTVYMELSSLRSEDTAVYYCARDLLQFGNQYYYAMDYWGQGTLVTVSS VL: DVVMTQSPLSLPVTLGQPASISCRSSQSLVHSNGNTYLHWFQQRPGQSPRRLIYKVSNRFSGVPDRFSGSGSGTDFTLKISRVEAEDVGVYYCSQSTHVPLTFGQGTKLEIK | – | 9.66 nM | 0.406 nM | – |
| S5B8VH-h1+S5B8VK-h2 (antibody, human IgG1, V domains shown, Humanized, expressed as a human IgG1 whole antibody; also called S5B8人源化分子) VH: QVQLVQSGAEVKKPGASVKVSCKASGYAFTNSWMHWVRQAPGQRLEWMGEIHPQSGRTNYNEKFKGRVTITRDTSASTAYMELSSLRSEDTAVYYCARDLLQFGNQYYYAMDYWGQGTLVTVSS VL: DIVMTQTPLSLPVTPGEPASISCRSSQSLVHSNGNTYLHWYLQKPGQSPQLLIYKVSNRFSGVPDRFSGSGSGTDFTLKISRVEAEDVGVYYCSQSTHVPLTFGQGTKLEIK | – | 5.15 nM | 0.0894 nM | – |
| S5B5 (mouse-human chimeric antibody, human IgG1) (antibody, Tested as a human IgG1-kappa/lambda chimeric antibody built from the variable domains of this scFv) scFv: QVKLQQFGAELVKPGASVKISCKATGYTFSSYWIGWVKQRPGHGLEWIGEILPGTGSTNYNEKFKDKATFTADTSPNTAYMQLSSLTSEDSAVYYCARWDGNYGDYALDYWGQGTSVTVSAGGGGSGGGGSGGGGSDIVMTQSPSSMYASLGERVTITCKASQDINSYLSWFQQKPGKSPKTLIYRANRLVDGVPSRFSGSGSGQDYSLTISSLEYEDMGIYYCLQYDEFPYTFGGGTKLEIK | no binding | – | – | – |
| S5B4 (mouse-human chimeric antibody, human IgG1) (antibody, Tested as a human IgG1-kappa/lambda chimeric antibody built from the variable domains of this scFv) scFv: QVKLQQSGAELMKPGASVKISCKATGYTFSSYWIGWLKQRPGHGLEWVGELLPGSGSTNYNEKFKGKATFTADTSSNTAYMQLSSLTSEDSAVYYCARWDGNYGDYTLDYWGQGTSVTVSSGGGGSGGGGSGGGGSDIVMTQSPSSMYASLGERVTITCKASQDINSYLSWFQQKPGKSPKTLIYRANRLVDGVPSRFSGSGSGQDYSLTISSLEYEDMGIYYCLQYDEFPYTFGGGTKLEMK | no binding | – | – | – |

Next, values leading:

| binding result [1] | Kd [2] | Kd [3] | Kd [4] | Binder |
| --- | --- | --- | --- | --- |
| – | 3.48 nM | 0.0486 nM | – | S5B8VH-h2+S5B8VK-h2 (antibody, human IgG1, V domains shown, Humanized, expressed as a human IgG1 whole antibody; also called S5B8人源化分子) VH: QVQLVQSGAEVKKPGASVKVSCKASGYAFTNSWMHWVRQAPGQGLEWMGEIHPQSGRTNYNEKFKGRVTMTRDTSTSTVYMELSSLRSEDTAVYYCARDLLQFGNQYYYAMDYWGQGTLVTVSS VL: DIVMTQTPLSLPVTPGEPASISCRSSQSLVHSNGNTYLHWYLQKPGQSPQLLIYKVSNRFSGVPDRFSGSGSGTDFTLKISRVEAEDVGVYYCSQSTHVPLTFGQGTKLEIK |
| no binding | – | – | – | S5E3 (mouse-human chimeric antibody, human IgG1) (antibody, Tested as a human IgG1-kappa/lambda chimeric antibody built from the variable domains of this scFv) scFv: QVQLQQSGPEVVKPGASVKMSCKATGYTSRSYWIEWVKQRPGHGLEWIGEILPGSGSTNYNEKFKGKATFTADTSSNTAYMQLSSLTSEDSAVYYCARWDGNYGDFVLDYWGQGTSVTVSSGGGGSGGGGSGGGGSDIQMTQSPSSMYASLGERVTITCKASQDINSYLSWFQQKPGKSPKTLIYRANRLVDGVPSRFSGSGSGQDYFLTISSLEYEDMGIYYCLQYDEFPYTFGGGTKLEMK |
| no binding | – | – | – | S5D3 (mouse-human chimeric antibody, human IgG1) (antibody, Tested as a human IgG1-kappa/lambda chimeric antibody built from the variable domains of this scFv) scFv: QVQLQQSGAELMKPGASVKISCKATGYTSSSYWIEWVKQRPGHGLEWIGEILPGSGSTNYNEKFKGKATFTADTSSNTAYMQLSSLTSEDSAVYYCARLYDNSYFDYWGQGTSLTVSSGGGGSGGGGSGGGGSDIVMTQSPSSMYASLGERVTITCKASQDINSYLSWFQQKPGKSPKTLIYRANRLVDGVPSRFSGSGSGQDYSLTISSLEYEDMGIYYCLQYDEFPYTFGGGTKLEMK |
| no binding | – | – | – | S5B7 (mouse-human chimeric antibody, human IgG1) (antibody, Tested as a human IgG1-kappa/lambda chimeric antibody built from the variable domains of this scFv) scFv: QVQLQQPGSVLVRPGASVKLSCKATGYTFSSYWIEWVKQRPGHGLEWIGDILPGTGTTNYNEKFKGKATFTADTSSNTAYMQFSSLTSEDSAVYYCASSYGNYVWGQGTSLTVSSGGGGSGGGGSGGGGSDVVMTQSPASLAVSLGQRATISCKASQSVDYDGDSYMNWYQQKPGQPPRLLIYAASNLESGIPARFSGSGSGTDFTLNIHPVEEEDAATYYCQQGNGAPRTFGGGTKLEIK |
| – | – | – | 2.73 nM | S5A10-h1 (antibody, human IgG1, V domains shown, Humanized, expressed as a human IgG1 whole antibody; also called S5A10VH-h1+S5A10VK-h1; S5A10人源化分子) VH: QVQLVQSGAEVKKPGSSVKVSCKASDYPFISYTIHWVRQAPGQGLEWMGYINPSNGYTNYNQKFKDRVTITADKSTSTAYMELSSLRSEDTAVYYCARKYGNFYAMDYWGQGTLVTVSS VL: DIQMTQSPSSLSASVGDRVTITCRASENIYSYLAWYQQKPGKAPKLLIYNAKTLAEGVPSRFSGSGSGTDFTLTISSLQPEDFATYYCQHHYGTPYTFGQGTKLEIK |
